Test results reported in PMC3907276 (Molecular Biology of the Cell, 2014).

Target: T1, Vph1NT-FLAG (first 406 amino acids of Vph1p with C-terminal FLAG) (S. cerevisiae, UniProt P32563 1-406)
T1 sequence (looked up): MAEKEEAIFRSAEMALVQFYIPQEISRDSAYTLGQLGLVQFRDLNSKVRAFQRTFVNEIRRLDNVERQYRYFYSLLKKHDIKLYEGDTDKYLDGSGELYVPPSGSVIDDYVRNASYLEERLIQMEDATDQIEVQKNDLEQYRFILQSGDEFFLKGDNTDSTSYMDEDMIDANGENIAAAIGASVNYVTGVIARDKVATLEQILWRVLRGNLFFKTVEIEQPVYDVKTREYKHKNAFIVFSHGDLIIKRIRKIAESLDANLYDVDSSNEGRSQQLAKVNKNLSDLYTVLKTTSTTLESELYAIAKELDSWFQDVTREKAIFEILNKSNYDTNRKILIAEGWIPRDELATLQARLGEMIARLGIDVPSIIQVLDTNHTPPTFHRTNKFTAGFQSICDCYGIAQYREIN
Test: pull-down

B1: GST-Rav1(840–1125) (domain or fragment, S. cerevisiae, UniProt P47104 840-1125, looked up)
chain: LTEQLTKTTLPYLTRHQQITLITVIEAVDEVTKNENIVDYNGVRFLLGVKLFLSHKNIQKSILMRDVSWALHSDNKEILLSSIDRHITSWNRAREYRIAYWIKEQDLVKKFEDIAKYEFSKDDKRDPSRCAIFYLALKKKQILLSLWKMAIGHPEQQKMVRFISNDFTVPRWRTAALKNAFVLLSKHRYMDAAVFFLLTDSLKDCVNVLCKQVHDMDLAIGVCRVYEGDNGPVLGELLTAQMLPETIKENDRWKASFIYWKLRKQEVAIKALLTAPIDLENNSSIV
- binding result: binds
